From patent US20210147536A1 (MAB VENTURE BIOPHARM, published 2021)
Residue numbers refer to the chain shown, from its start. In names and notes the source's numbering stands.

B1: MV705-3-VH-DD + DE-IgG4 (antibody, V domains shown)
VH: EVQLLESGAEVKKPGASVKVSCKASGYTFTSYGISWVRQAPGQGLEWMGWISAYNGNTNYAQKLQGRVTMTTDTSTSTAYMELRSLRSDDTAVYYCARDGWWELLRPDEAFDIWGQGTTVTVSS
VL: QLVLTQSPSVSVSPGQTASITCSGDKLGDKYAYWYQQKPGQAPVLVIYYDSDRPSGIPERFSGSNSGNTATLTISRVEAGDEADYYCQVWDSSSDQVVFGGGTQLTVLG
notes: human IgG4 S228P constant region, MV705-3 lambda light chain; also called 13365; 13365 (DD + DE)
B2: MV705-3-VH-ED + DD-IgG4 (antibody, V domains shown)
VH: B1 VH with D89E, E109D
VL: B1 VL
notes: human IgG4 S228P constant region, MV705-3 lambda light chain; also called 13381; 13381 (ED + DD)
B3: MV705-3-VH-DE + DD-IgG4 (antibody, V domains shown)
VH: B1 VH with D90E, E109D
VL: B1 VL
notes: human IgG4 S228P constant region, MV705-3 lambda light chain; also called 13380; 13380 (DE + DD)
B4: MV705-3-VH-DE + DE-IgG4 (antibody, V domains shown)
VH: B1 VH with D90E
VL: B1 VL
notes: human IgG4 S228P constant region, MV705-3 lambda light chain; also called 13565; 13565 (DE + DE)
B5: MV705-3-VH-ED + DE-IgG4 (antibody, V domains shown)
VH: B1 VH with D89E
VL: B1 VL
notes: human IgG4 S228P constant region, MV705-3 lambda light chain; also called 13564; 13564 (ED + DE)
B6: MV705-3-VH-DD + ED-IgG4 (antibody, V domains shown)
VH: B1 VH with D108E, E109D
VL: B1 VL
notes: human IgG4 S228P constant region, MV705-3 lambda light chain; also called 13386; 13386 (DD + ED)
B7: MV705-3-VH-DE + ED-IgG4 (antibody, V domains shown)
VH: B1 VH with D90E, D108E, E109D
VL: B1 VL
notes: human IgG4 S228P constant region, MV705-3 lambda light chain; also called 13563; 13563 (DE + ED)
B8: MV705-3-VH-ED + ED-IgG4 (antibody, V domains shown)
VH: B1 VH with D89E, D108E, E109D
VL: B1 VL
notes: human IgG4 S228P constant region, MV705-3 lambda light chain; also called 13616; 13616 (ED + ED)

Tests used:
[1] = target: T1, human LAG-3 on the cell surface (human, UniProt P18627 23-525); assay: flow cytometry on cells expressing the human LAG-3, PE anti-human IgG; N = 1
T1 construct: whole, on cells; also called cells expressing the human LAG-3
T1 sequence (looked up): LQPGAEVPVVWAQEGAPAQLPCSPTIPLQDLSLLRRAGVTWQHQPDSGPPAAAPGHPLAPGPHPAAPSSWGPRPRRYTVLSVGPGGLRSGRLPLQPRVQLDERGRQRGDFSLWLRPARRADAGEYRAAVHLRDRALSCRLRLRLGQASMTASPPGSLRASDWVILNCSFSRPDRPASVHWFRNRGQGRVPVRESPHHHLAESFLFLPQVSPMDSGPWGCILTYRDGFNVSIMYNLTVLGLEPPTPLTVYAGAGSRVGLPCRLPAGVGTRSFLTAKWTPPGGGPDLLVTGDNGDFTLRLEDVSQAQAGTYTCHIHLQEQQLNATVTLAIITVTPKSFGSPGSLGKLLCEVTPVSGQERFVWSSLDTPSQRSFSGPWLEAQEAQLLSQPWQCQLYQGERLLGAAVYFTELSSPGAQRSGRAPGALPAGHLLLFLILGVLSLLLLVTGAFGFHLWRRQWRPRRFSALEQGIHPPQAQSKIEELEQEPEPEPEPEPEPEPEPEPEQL

[2] = target: T2, human LAG-3-6*His tag recombinant fusion protein (human, UniProt P18627 23-450, biotin-labelled in panning and in Example 9); assay: ELISA as in Example 4 (antibody coated, human LAG-3-6*His titrated)
T2 construct: Bought protein; also called hLAG-3-6*his tag recombinant protein; human LAG-3-his tag recombinant fusion protein
T2 sequence: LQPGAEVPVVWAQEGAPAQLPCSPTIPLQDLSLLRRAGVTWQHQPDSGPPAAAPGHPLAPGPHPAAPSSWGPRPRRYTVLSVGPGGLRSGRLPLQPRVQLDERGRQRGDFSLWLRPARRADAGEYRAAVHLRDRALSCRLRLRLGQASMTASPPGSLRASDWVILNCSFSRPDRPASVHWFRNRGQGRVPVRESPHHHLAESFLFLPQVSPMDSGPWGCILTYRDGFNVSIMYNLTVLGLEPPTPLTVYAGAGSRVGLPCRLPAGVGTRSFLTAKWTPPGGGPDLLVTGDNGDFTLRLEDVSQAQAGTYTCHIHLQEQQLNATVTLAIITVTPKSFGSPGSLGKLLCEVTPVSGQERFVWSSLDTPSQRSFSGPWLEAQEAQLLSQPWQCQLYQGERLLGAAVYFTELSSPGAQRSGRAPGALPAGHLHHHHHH

[3] = target: T2, human LAG-3-6*His tag recombinant …; assay: ELISA as in Example 4 (antibody coated, human LAG-3-6*His titrated); N = 3
[4] = target: T1, human LAG-3 on the cell surface; assay: flow cytometry on cells expressing the human LAG-3, PE anti-human IgG; N = 4
[5] = target: T1, human LAG-3 on the cell surface; assay: cell-based or functional assay
[6] = target: T1, human LAG-3 on the cell surface; assay: flow cytometry on cells expressing the human LAG-3, PE anti-human IgG; N = 2
[7] = target: T2, human LAG-3-6*His tag recombinant …; assay: ELISA as in Example 4 (antibody coated, human LAG-3-6*His titrated); N = 2

| Binder | EC50 [1] [µg/mL] | EC50 [2] [µg/mL] | EC50 [3] [µg/mL] | EC50 [4] [µg/mL] | EC50, ability to activate T cells in vitro (LAG3/NFAT Reporter-Jurkat) [5] [µg/mL] | EC50 [6] [µg/mL] | EC50 [7] [µg/mL] |
| --- | --- | --- | --- | --- | --- | --- | --- |
| B1 | > 10 | 1.29 |  |  |  |  |  |
| B2 |  |  | 0.044 | 0.0022 | 0.1 |  |  |
| B3 |  |  | 0.044 | 0.0018 | 0.05 |  |  |
| B4 |  | 3.13 |  |  |  | > 0.01 |  |
| B5 | > 0.01 | 2.43 |  |  |  |  |  |
| B6 |  | 0.15 |  | 0.0059 | > 30 |  |  |
| B7 |  | 0.21 |  | 0.0047 | > 30 |  |  |
| B8 |  |  |  |  | > 30 | 0.0051 | 0.21 |
